The target in one assay is T1, soluble CD16A (sCD16A) (human, UniProt P08637 17-208).
T1 construct: extracellular domain; also called sCD16A-Biotin; HRP conjugated sCD16A
Briefly: sandwich ELISA, CD32B coat, HRP-CD16 probe.

The next assay deals with T2, sCD32B-Ig (human, UniProt P31994 43-217).
T2 construct: extracellular domain; also called CD32B (plate coat of the sandwich ELISA); not shown: Ig part not described
T2 sequence (looked up): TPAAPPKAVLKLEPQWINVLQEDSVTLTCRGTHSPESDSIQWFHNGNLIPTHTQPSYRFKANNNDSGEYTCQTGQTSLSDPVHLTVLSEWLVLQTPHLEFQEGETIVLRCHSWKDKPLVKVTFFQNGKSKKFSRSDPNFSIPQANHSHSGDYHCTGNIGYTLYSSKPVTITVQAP
Briefly: sandwich ELISA, CD32B coat, HRP-CD16 probe.

We go through two molecules from EP2158221B1 (MacroGenics, Inc., dated 2018).

T1 sequence (P08637 17-208): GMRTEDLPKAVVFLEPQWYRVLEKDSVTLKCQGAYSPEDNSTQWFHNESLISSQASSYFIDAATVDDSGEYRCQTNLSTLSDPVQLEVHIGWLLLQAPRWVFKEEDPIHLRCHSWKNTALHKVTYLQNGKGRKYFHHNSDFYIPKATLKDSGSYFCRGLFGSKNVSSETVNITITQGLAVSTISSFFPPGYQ

B1: diabody of constructs 9 and 1 (pMGX0719 + pMGX0669) (bispecific antibody, human IgG1)
chain 1: not shown
chain 2: EIVLTQSPDFQSVTPKEKVTFTCRTSQSIGTNIHWYQQKPDQSPKLLIKEVSESISGVPSRFSGSGSGTDFTLTINSLEAEDAATYYCQQSNTWPFTFGGGTKVEIKGGGSGGGGQVTLRESGPALVKPTQTLTLTCTFSGFSLSTSGMGVGWIRQPPGKALEWLAHIWWDDDKRYNPALKSRLTISKDTSKNQVVLTMTNMDPVDTATYYCAQINPAWFAYWGQGTLVTVSSLGGC
notes: hinge/Fc at the N-terminus of the heavier chain; about 150 kDa species on Western blot; also called constructs 1 and 9; constructs 9+1
On to B1, for which the binding result with soluble CD16A (sCD16A) and with sCD32B-Ig was “binds” each time.

B2: diabody of constructs 10 and 1 (pMGX0718 + pMGX0669) (bispecific antibody)
chain 1: not shown
chain 2: EIVLTQSPDFQSVTPKEKVTFTCRTSQSIGTNIHWYQQKPDQSPKLLIKEVSESISGVPSRFSGSGSGTDFTLTINSLEAEDAATYYCQQSNTWPFTFGGGTKVEIKGGGSGGGGQVTLRESGPALVKPTQTLTLTCTFSGFSLSTSGMGVGWIRQPPGKALEWLAHIWWDDDKRYNPALKSRLTISKDTSKNQVVLTMTNMDPVDTATYYCAQINPAWFAYWGQGTLVTVSSLGGC
notes: Fc at the N-terminus of the heavier chain; at least two species of about 75 and 100 kDa on Western blot; also called constructs 1 and 10; constructs 10+1; copies: 2 + 2
For the molecule B2, the binding result with soluble CD16A (sCD16A) and with sCD32B-Ig was “binds” in each case.
